Positions count from the first letter of the chain named.
T1: human MCAM domain 1 (amino acids 19-129), Fc-tagged (human, UniProt P43121 19-129)
T1 construct: also called MCAM Fc domain 1
T1 sequence: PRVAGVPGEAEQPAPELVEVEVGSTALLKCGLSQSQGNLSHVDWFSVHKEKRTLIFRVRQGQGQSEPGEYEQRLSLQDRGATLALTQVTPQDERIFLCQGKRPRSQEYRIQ

T2: human MCAM domain 2 (amino acids 139-242), Fc-tagged (human, UniProt P43121 139-242)
T2 sequence: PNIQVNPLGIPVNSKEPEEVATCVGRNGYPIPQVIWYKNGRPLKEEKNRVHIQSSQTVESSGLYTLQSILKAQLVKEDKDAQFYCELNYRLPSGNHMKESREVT

T3: Recombinant human Fc-tagged MCAM IgG1-2A (human MCAM domains 1 and 2, amino acids 19-242) (human, UniProt P43121 19-242)
T3 construct: also called human MCAM IgG1-2A; MCAM Fc domains 1 and 2; not shown: human Fc tag
T3 sequence: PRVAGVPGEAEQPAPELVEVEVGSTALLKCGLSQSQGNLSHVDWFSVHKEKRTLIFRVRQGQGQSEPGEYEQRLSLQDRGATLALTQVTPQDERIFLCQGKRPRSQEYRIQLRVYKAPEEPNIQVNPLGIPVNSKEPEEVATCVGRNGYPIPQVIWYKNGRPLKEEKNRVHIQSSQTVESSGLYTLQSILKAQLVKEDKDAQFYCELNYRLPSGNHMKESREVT

T4: human MCAM domain 3 (amino acids 244-321), Fc-tagged (human, UniProt P43121 244-321)
T4 construct: also called domain 3 of the human MCAM protein
T4 sequence: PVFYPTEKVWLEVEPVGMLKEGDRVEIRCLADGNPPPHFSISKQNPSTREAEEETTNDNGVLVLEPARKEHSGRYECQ

T5: human MCAM (melanoma cell adhesion molecule) expressed on transfected CHO cells (human, UniProt P43121 24-646)
T5 construct: also called hMCAM; CD146
T5 chain: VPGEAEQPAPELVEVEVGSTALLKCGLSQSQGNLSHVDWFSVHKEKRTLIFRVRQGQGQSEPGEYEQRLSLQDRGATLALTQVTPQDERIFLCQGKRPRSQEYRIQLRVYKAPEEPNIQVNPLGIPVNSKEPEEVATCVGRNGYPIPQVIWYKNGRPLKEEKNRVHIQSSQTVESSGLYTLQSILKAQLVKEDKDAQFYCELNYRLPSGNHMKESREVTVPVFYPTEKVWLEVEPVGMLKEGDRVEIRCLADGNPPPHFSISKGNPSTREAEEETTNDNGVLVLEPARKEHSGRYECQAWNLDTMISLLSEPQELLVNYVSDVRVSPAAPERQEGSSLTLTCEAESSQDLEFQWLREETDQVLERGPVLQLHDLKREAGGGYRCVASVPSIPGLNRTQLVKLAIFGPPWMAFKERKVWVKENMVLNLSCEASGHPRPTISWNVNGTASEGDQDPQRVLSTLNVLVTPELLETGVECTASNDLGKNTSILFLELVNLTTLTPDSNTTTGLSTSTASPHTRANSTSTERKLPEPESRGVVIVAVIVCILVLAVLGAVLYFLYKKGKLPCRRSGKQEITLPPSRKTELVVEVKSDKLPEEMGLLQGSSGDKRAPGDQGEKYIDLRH

T6: recombinant hMCAM-His (human, UniProt P43121 24-559)
T6 construct: not shown: His tag
T6 chain: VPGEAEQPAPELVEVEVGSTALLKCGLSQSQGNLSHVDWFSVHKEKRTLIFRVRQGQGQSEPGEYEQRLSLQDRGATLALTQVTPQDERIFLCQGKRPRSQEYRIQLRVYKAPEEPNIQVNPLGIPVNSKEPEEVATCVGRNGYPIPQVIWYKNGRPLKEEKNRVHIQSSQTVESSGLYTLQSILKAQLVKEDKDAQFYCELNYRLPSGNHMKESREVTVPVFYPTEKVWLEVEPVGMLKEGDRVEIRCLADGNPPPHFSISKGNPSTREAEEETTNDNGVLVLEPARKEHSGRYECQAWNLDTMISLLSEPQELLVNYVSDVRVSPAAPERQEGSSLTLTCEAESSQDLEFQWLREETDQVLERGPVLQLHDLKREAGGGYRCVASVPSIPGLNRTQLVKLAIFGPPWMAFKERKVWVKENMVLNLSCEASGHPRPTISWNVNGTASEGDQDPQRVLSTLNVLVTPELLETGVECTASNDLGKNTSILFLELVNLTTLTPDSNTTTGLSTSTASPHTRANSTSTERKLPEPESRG

B1: mouse anti-human MCAM monoclonal antibody clone 1174.1.3 (antibody, V domains shown)
VH: QIQLVQSGPELKKPGETVKISCKASGYTFTNYGMNWVKQAPGKGLKWMGWINTYTGEPTYADDFKGRFALSLETSASTAYLQINNLKNEDMATYFCARYRYNKYERAMDYWGQGTSVTVSS
VL: DIVLTQSPASLAVSLGQRATISCRASKSVSTSGYSYMYWYQQKPGQPPKLLIYLASNLESGVPARFSGSGSGTDFTLNIHPVEEEDAATYYCQHSRELPFTFGSGTKLEIK
notes: mouse hybridoma antibody
B2: chimeric 1749 (antibody, V domains shown)
VH: DVKLVESGGDLVKPGGSLKLSCAASGFTFSSYIMSWVRQTPEKRLEWVATISSGGSSTYYPDSVKGRFTISRDNAKNTLYLQMSSLKSEDTAMYYCTRDDDYDVKVFAYWGQGTLVTVSA
VL: DIVMSQSPSSLAVSAGEKVTMNCKSSRSLLNSRIRKNYLAWYQQKPGQSPKLLIYWASTRESGVPDRFTGSGSGTDFTLTISSVQAEDLAVYYCKQSYNLLTFGAGTKLELK
B3: mouse anti-human MCAM monoclonal antibody clone 1414.1.2 (antibody, V domains shown)
VH: EIQLQQTGPELVKPGASVKISCKASGYSFTDYIMLWVKQSHGKSLEWIGNINPYSGSSGYNLKFKGKATLTVDKSSSTAYMQLNSLTSEDSAVYYCARGKDFAMDYWGQGTSVTVSS
VL: B2 VL with N22S, R27Q, R33S, I34T, Y38F, L100R, L101Y, A105G, L111I
notes: mouse hybridoma antibody
B4: mouse anti-human MCAM monoclonal antibody clone 1415.1.1 (antibody, V domains shown)
VH: QVQLQQPGAELVQPGAPVKLSCKASGYIFTSYWMNWVKQRPGRGLEWIGRIDPSDSKIHYNQKFKDKATLTVDRSSSTAYIQLGSLTSEDSAVYYCAKEGGLRRGDYAMDYWGQGTSVTVSS
VL: DIVMTQSPATLSVTPGDRVSLSCRASQSISDYLHWYQQKSHESPRLLIKYASQSISGIPSRFSGSGSGSDFTLSINSVEPEDVGVYYCQNGHNFPRTFGGGTKLEIK
notes: mouse hybridoma antibody
B5: h2107_VH3 + h2107_VL2 (antibody, human IgG1, V domains shown)
VH: QVTLKESGPVLVKPTETLTLTCTVSGFSLTSNGVSWVRQPPGKALEWIAAISSGGSTYYNSAFKSRLTISRNTSKSQVVLTMTNMDPVDTATYYCARHRPFYFDYWGQGTLVTVSS
VL: DIQMTQSPSSLSASVGDRVTITCKGSQNIYKSLAWFQLKPGKVPKLLIYDANSLQTGIPSRFSGSGSGTDFTLTISSLQPEDVATYYCQQYYSGYTFGGGTKVEIK
notes: also called VH3VL2

How the values were obtained:
[1] = biological target: T1, human MCAM domain 1 (amino acids …); experiment: ForteBio domain mapping as in Example 8
[2] = biological target: T2, human MCAM domain 2 (amino acids …); experiment: ForteBio domain mapping as in Example 8
[3] = biological target: T3, Recombinant human Fc-tagged MCAM …; experiment: ForteBio domain mapping as in Example 8
[4] = biological target: T4, human MCAM domain 3 (amino acids …); experiment: ForteBio domain mapping as in Example 8
[5] = biological target: T5, human MCAM (melanoma cell adhesion …); experiment: flow cytometry, human MCAM CHO cells preincubated with antibody, competitor recombinant human laminin 411 at 20 ug/ml
Description: The 87 independent mouse fusion clones and 26 independent rat fusion clones described in Example 10 above as being capable of (i) binding to human MCAM, and (ii) blocking the interaction between human MCAM and the α-4 chain of laminin were further characterized as follows. First, IC50 quantitation for the ability of the monoclonal antibody to block the binding of human MCAM to the α-4 chain of laminin was determined as follows. CHO cells expressing human MCAM were incubated with an anti-human MCAM antibody (at various concentrations) for 30 minutes at 4 degrees Celsius. […] Unbound laminin was then washed away, and the laminin bound to the surface of the cells was detected with fluorescently labeled anti-laminin antibodies. After washing, the amount of laminin bound to the surface was detected by flow cytometry, and IC50s were calculated based on the mean fluorescent intensity.
These six anti-MCAM monoclonal antibody clones are herein referred to as (i) the mouse anti-human MCAM monoclonal clones 1174.1.3, 1414.1.2, 1415.1.1, and 1749.1.3, and (ii) the rat anti-human MCAM monoclonal antibody clones 2120.4.19 and 2107.4.10. […] As such, each of these specific monoclonal antibodies was very capable of binding to human MCAM and inhibiting the interaction of cell-expressed human MCAM with its α-4 laminin binding ligand.

recombinant hMCAM-His [6] = biological target: T6, recombinant hMCAM-His; experiment: ForteBio Octet Red, hMCAM-His analyte; Expt. #2; vs rodent 1749
Description: (§1) The affinities were measured using the ForteBio Octet Red. Anti-human Fc sensors were used to capture the humanized antibodies, and several concentrations of hMCAMHis analyte were used to determine the affinity using a 1:1 fitting model.

recombinant hMCAM-His [7] = biological target: T6, recombinant hMCAM-His; experiment: ForteBio Octet Red, hMCAM-His analyte; Forte column 1; vs rodent 1749
Description: as §1

[8] = biological target: T5, human MCAM (melanoma cell adhesion …); experiment: laminin/FACS on hMCAM CHO cells, competitor laminin 411; Expt#1; vs rodent 1749
Description: (§2) Following incubation for 30-45 minutes, the cells were washed and anti-laminin conjugated to AF650 (NovusBio) was added to detect the bound laminin. The cells were run on a flow cytometer to measure the laminin binding signal.

[9] = biological target: T5, human MCAM (melanoma cell adhesion …); experiment: laminin/FACS on hMCAM CHO cells, competitor laminin 411; Expt#2; vs rodent 1749
Description: as §2

recombinant hMCAM-His [10] = biological target: T6, recombinant hMCAM-His; experiment: competitive ELISA on hMCAM-His, competitor biotinylated rodent or chimeric 1749; Expt. #1; vs rodent 1749
Description: (§3) ELISA plates were coated with recombinant hMCAM-His, and blocked with casein buffer to prevent non-specific binding. Biotinylated rodent or chimeric antibody was added at a subsaturating concentration, in the presence or absence of 3× increasing concentrations of unlabeled competitor (humanized antibody, rodent, or chimeric). After washing to remove unbound antibody, streptavidin HRP was added to allow detection of the biotinylated antibody. The ELISA was developed with TMB substrate and the OD450 was measured. The IC50 of the unlabeled competitor was determined using the GraphPad Prism5 software.

recombinant hMCAM-His [11] = biological target: T6, recombinant hMCAM-His; experiment: competitive ELISA on hMCAM-His, competitor biotinylated rodent or chimeric 1749; Expt. #2; vs rodent 1749
Description: as §3

[12] = biological target: T5, human MCAM (melanoma cell adhesion …); experiment: laminin/FACS blocking assay, % inhibition of laminin 411 binding to hMCAM-expressing CHO cells against antibody concentration; blocked ligand: laminin 411
Description: as §2

recombinant hMCAM-His [13] = biological target: T6, recombinant hMCAM-His; experiment: ForteBio Octet Red, hMCAM-His analyte; Expt. #1; vs rodent 2107
Description: as §1

recombinant hMCAM-His [14] = biological target: T6, recombinant hMCAM-His; experiment: summary of ForteBio and competitive ELISA on hMCAM-His; vs rodent 2107
Description: as §3, §1

[15] = biological target: T5, human MCAM (melanoma cell adhesion …); experiment: summary of laminin blocking assay on hMCAM CHO cells, competitor laminin 411; vs rodent 2107
Description: as §2

recombinant hMCAM-His [16] = biological target: T6, recombinant hMCAM-His; experiment: competitive ELISA on hMCAM-His, competitor biotinylated rodent or chimeric 2107; Expt. #1; vs rodent 2107
Description: as §3

Binder | binding result [1] | binding result [2] | binding result [3] | binding result [4] | IC50 [5] | other results
B1 | no binding | no binding | no binding | binds | 0.469 µg/mL | 
B2 |  |  |  |  |  | fold over rodent (Forte affinity) (recombinant hMCAM-His [6]): 0.79 fold; fold over rodent (Forte affinity) (recombinant hMCAM-His [7]): 0.6 fold; fold over rodent (blocking, laminin/FACS) [8]: 1.4 fold; fold over rodent (blocking, laminin/FACS) [9]: 1.4 fold; fold over rodent (competitive ELISA) (recombinant hMCAM-His [10]): 0.81 fold; fold over rodent (competitive ELISA) (recombinant hMCAM-His [11]): 0.97 fold; IC50 (read off the curve) [12]: ~0.5 µg/mL
B3 | no binding | no binding | no binding | binds | 0.431 µg/mL | 
B4 | no binding | no binding | no binding | binds | 0.307 µg/mL | 
B5 |  |  |  |  |  | fold over rodent (Forte affinity) (recombinant hMCAM-His [13]): 2.54 fold; fold reduction in affinity compared to the rodent (recombinant hMCAM-His [14]): < 3 fold; fold reduction in potency compared to the rodent [15]: < 3 fold; fold over rodent (competitive ELISA) (recombinant hMCAM-His [16]): 1.62 fold

From US20150239980A1 (NEOTOPE BOSCIENCES, published 2015)
